These results are taken from publication doi:10.1101/2023.01.17.524398.

The experiment concerns the target Aplysia punctata ink toxin (APIT), recombinant (Aplysia punctata). Put plainly: MALDI mass spectrometry.

Take “Aplysia punctata ink toxin (APIT), recombinant (enzyme)”: the stoichiometry N came out at 2.

As usually defined, the stoichiometry N is a count of units in the complex or per binding partner.
